Experimental data from paper PMC4355918.

Target: hnRNP C1 (UniProt P07910-2 1-293)
Assay: filter binding

## AACUUAAUGUUUUUGCAUUGGUCUUUGAGUUA (structured_RNA) [MALAT1 2,577-U]
  binding signal: ~4 fold stronger than N1
